Patent US7083511
Several values for one entry are separate records, joined by “and”; a condition that tells them apart may be missing. Equal values may be shown once.

What was measured:
RPRTSSF = system: T1, RPRTSSF
T1 sequence: RPRTSSF

PRTSSF = system: T2, PRTSSF
T2 sequence: PRTSSF

Crosstide (GRPRTSSFAEG) = system: T3, Crosstide (GRPRTSSFAEG)
T3 sequence: GRPRTSSFAEG

KPRTSSF = system: T4, KPRTSSF
T4 sequence: KPRTSSF

RPRTSS = system: T5, RPRTSS
T5 sequence: RPRTSS

RPRTSAF = system: T6, RPRTSAF
T6 sequence: RPRTSAF

RPRAATF = system: T7, RPRAATF
T7 sequence: RPRAATF

RPRTSSL = system: T8, RPRTSSL
T8 sequence: RPRTSSL

RPRTSSA = system: T9, RPRTSSA
T9 sequence: RPRTSSA

RPRTSTF = system: T10, RPRTSTF
T10 sequence: RPRTSTF

RPKTSSF = system: T11, RPKTSSF
T11 sequence: RPKTSSF

RPRTSSV = system: T12, RPRTSSV
T12 sequence: RPRTSSV

RPRTSSK = system: T13, RPRTSSK
T13 sequence: RPRTSSK

RPRTSSE = system: T14, RPRTSSE
T14 sequence: RPRTSSE

| Substance | kinase activity toward peptide (30 µM), relative to peptide 1 (Crosstide) (RPRTSSF) | kinase activity toward peptide (30 µM), relative to peptide 1 (Crosstide) (PRTSSF) [%] | kinase activity toward peptide (30 µM), relative to peptide 1 (Crosstide) (Crosstide (GRPRTSSFAEG)) [%] | kinase activity toward peptide (30 µM), relative to peptide 1 (Crosstide) (KPRTSSF) | kinase activity toward peptide (30 µM), relative to peptide 1 (Crosstide) (RPRTSS) | kinase activity toward peptide (30 µM), relative to peptide 1 (Crosstide) (RPRTSAF) [%] | kinase activity toward peptide (30 µM), relative to peptide 1 (Crosstide) (RPRAATF) [%] | kinase activity toward peptide (30 µM), relative to peptide 1 (Crosstide) (RPRTSSL) [%] | kinase activity toward peptide (30 µM), relative to peptide 1 (Crosstide) (RPRTSSA) [%] | kinase activity toward peptide (30 µM), relative to peptide 1 (Crosstide) (RPRTSTF) [%] | kinase activity toward peptide (30 µM), relative to peptide 1 (Crosstide) (RPKTSSF) [%] | kinase activity toward peptide (30 µM), relative to peptide 1 (Crosstide) (RPRTSSV) [%] | kinase activity toward peptide (30 µM), relative to peptide 1 (Crosstide) (RPRTSSK) [%] | kinase activity toward peptide (30 µM), relative to peptide 1 (Crosstide) (RPRTSSE) [%] |
| --- | --- | --- | --- | --- | --- | --- | --- | --- | --- | --- | --- | --- | --- | --- |
| GST-ΔN-SGK(61-431)[S422D] | 154% and 135% | < 1 | 100 | 2% and < 1% | 5.1% and 10% | < 1 |  |  |  |  |  |  |  |  |
| GST-ΔN-SGK3[S419D] | 137% | < 1 | 100 | < 1% | 18% | < 1 | 56 | 113 | 123 | 156 | 48 | 139 | 200 | 67 |
| GST-PKBα | 160% | < 1 | 100 | 6% | < 1% | < 1 | 55 | 69 | 26 | 208 | 26 | 67 | 48 | 21 |
| GST-SGK2α[S356D] | 182% | < 1 | 100 | < 1% | 8% | < 1 | 61 | 185 | 82 | 192 | 8 | 124 | 128 | 34 |
